Reference: patent US10239925B2, “Peptides and combination of peptides for use in immunotherapy against ovarian cancer and other cancers” (IMMATICS BIOTECHNOLOGIES GMBH, priority 2015, dated 2019)

Biological target: HLA-A*02:01 (Homo sapiens, UniProt P04439, D140Y/D185E/D98H/E176V/E277Q/G131W/G231S/I119V/I121R/I166T/I218V/L300P/L318F/N151K/N90K/P208A/P217A/Q86G/Q94H/R138H/R169H/T345S)
Experiment: MHC binding assay (UV-ligand exchange, anti-β2m ELISA, peptide exchange yield)
Details: binding to HLA-A*02:01
Text: Candidate peptides for T cell based therapies according to the present invention were further tested for their MHC binding capacity (affinity). The individual peptide-MHC complexes were produced by UV-ligand exchange, where a UV-sensitive peptide is cleaved upon UV-irradiation, and exchanged with the peptide of interest as analyzed. Only peptide candidates that can effectively bind and stabilize the peptide-receptive MHC molecules prevent dissociation of the MHC complexes. To determine the yield of the exchange reaction, an ELISA was performed based on the detection of the light chain (β2m) of stabilized MHC complexes. The assay was performed as generally described in Rodenko et al. (Rodenko et al., 2006).
96 well MAXISorp plates (NUNC) were coated over night with 2 ug/ml streptavidin in PBS at room temperature, washed 4× and blocked for 1h at 37° C. in 2% BSA containing blocking buffer. […] Peptide-MHC monomers of the UV-exchange reaction were diluted 100 fold in blocking buffer. Samples were incubated for 1 h at 37° C., washed four times, incubated with 2 ug/ml HRP conjugated anti-β2m for 1h at 37° C., washed again and detected with TMB solution that is stopped with […]. Absorption was measured at 450 nm. Candidate peptides that show a high exchange yield (preferably higher than 50%, most preferred higher than 75%) are generally preferred for a generation and production of antibodies or fragments thereof, and/or T cell receptors or fragments thereof, as they show sufficient avidity to the MHC molecules and prevent dissociation of the MHC complexes.

Substance	Peptide exchange (MHC class I binding score, peptide exchange yield)
84 (VTFGEKLLGV; listed as Homo sapiens) [compound 84]	“++” (>20% = ++)
85 (KMSELRVTL; listed as Homo sapiens) [compound 85]	“+++” (>50 = +++)
86 (NLIGKIENV; listed as Homo sapiens) [compound 86]	“+++” (>50 = +++)
87 (ALPEAPAPLLPHIT; listed as Homo sapiens) [compound 87]	“++” (>20% = ++)
88 (FLLVGDLMAV; listed as Homo sapiens) [compound 88]	“+++” (>50 = +++)
89 (YILPTETIYV; listed as Homo sapiens) [compound 89]	“++++” (>75% = ++++)
90 (TLLQIIETV; listed as Homo sapiens) [compound 90]	“+++” (>50 = +++)
91 (IMQDFPAEIFL; listed as Homo sapiens) [compound 91]	“++++” (>75% = ++++)
92 (YLIPFTGIVGL; listed as Homo sapiens) [compound 92]	“++” (>20% = ++)
93 (LLQAIKLYL; listed as Homo sapiens) [compound 93]	“++” (>20% = ++)
94 (YLIDIKTIAI; listed as Homo sapiens) [compound 94]	“++” (>20% = ++)
95 (SVIPQIQKV; listed as Homo sapiens) [compound 95]	“+++” (>50 = +++)
96 (YIFTDNPAAV; listed as Homo sapiens) [compound 96]	“+++” (>50 = +++)
97 (SLINGSFLV; listed as Homo sapiens) [compound 97]	“+++” (>50 = +++)
98 (LIIDQADIYL; listed as Homo sapiens) [compound 98]	“+++” (>50 = +++)
99 (ALVSKGLATV; listed as Homo sapiens) [compound 99]	“++” (>20% = ++)
100 (YLLSTNAQL; listed as Homo sapiens) [compound 100]	“++++” (>75% = ++++)
101 (ILVGGGALATV; listed as Homo sapiens) [compound 101]	“+++” (>50 = +++)
102 (YLFESEGLVL; listed as Homo sapiens) [compound 102]	“+++” (>50 = +++)
103 (TLAEEVVAL; listed as Homo sapiens) [compound 103]	“+++” (>50 = +++)
104 (STMEQNFLL; listed as Homo sapiens) [compound 104]	“++++” (>75% = ++++)
106 (LLYDAVHIVSV; listed as Homo sapiens) [compound 106]	“+++” (>50 = +++)
107 (FLQPVDDTQHL; listed as Homo sapiens) [compound 107]	“+++” (>50 = +++)
109 (IILSILEQA; listed as Homo sapiens) [compound 109]	“++++” (>75% = ++++)
110 (FLSQVDFEL; listed as Homo sapiens) [compound 110]	“+++” (>50 = +++)
111 (YVWGFYPAEV; listed as Homo sapiens) [compound 111]	“+++” (>50 = +++)

The next lines start with the values.

Peptide exchange (MHC class I binding score, peptide exchange yield)	Substance
“++” (>20% = ++)	114 (SLVGEPILQNV; listed as Homo sapiens) [compound 114]
“++” (>20% = ++)	115 (AIAGAGILYGV; listed as Homo sapiens) [compound 115]
“+” (>10% = +)	116 (YHIDEEVGF; listed as Homo sapiens) [compound 116]
“+++” (>50 = +++)	117 (ILPDGEDFLAV; listed as Homo sapiens) [compound 117]
“++++” (>75% = ++++)	119 (FLYIGDIVSL; listed as Homo sapiens) [compound 119]
“+++” (>50 = +++)	120 (ALLGIPLTLV; listed as Homo sapiens) [compound 120]
“++” (>20% = ++)	121 (GVVDPRAISVL; listed as Homo sapiens) [compound 121]
“+++” (>50 = +++)	122 (FLLAEDDIYL; listed as Homo sapiens) [compound 122]
“+++” (>50 = +++)	123 (NLWDLTDASVV; listed as Homo sapiens) [compound 123]
“++” (>20% = ++)	124 (ALYETELADA; listed as Homo sapiens) [compound 124]
“+++” (>50 = +++)	125 (VQIHQVAQV; listed as Homo sapiens) [compound 125]
“++++” (>75% = ++++)	126 (VLAYFLPEA; listed as Homo sapiens) [compound 126]
“++” (>20% = ++)	127 (KIGDEPPKV; listed as Homo sapiens) [compound 127]
“++” (>20% = ++)	128 (YLFDDPLSAV; listed as Homo sapiens) [compound 128]
“+++” (>50 = +++)	129 (GLLDGGVDILL; listed as Homo sapiens) [compound 129]
“+++” (>50 = +++)	130 (FLWNGEDSALL; listed as Homo sapiens) [compound 130]
“++” (>20% = ++)	131 (FVPPVTVFPSL; listed as Homo sapiens) [compound 131]
“+++” (>50 = +++)	132 (LLVEQPPLAGV; listed as Homo sapiens) [compound 132]
“++” (>20% = ++)	133 (KVLSNIHTV; listed as Homo sapiens) [compound 133]
“+++” (>50 = +++)	134 (YLQELIFSV; listed as Homo sapiens) [compound 134]
“+++” (>50 = +++)	135 (ALSEVDFQL; listed as Homo sapiens) [compound 135]
“+++” (>50 = +++)	136 (YLADPSNLFVV; listed as Homo sapiens) [compound 136]
“++++” (>75% = ++++)	137 (TLVLTLPTV; listed as Homo sapiens) [compound 137]
“+++” (>50 = +++)	138 (YQYPRAILSV; listed as Homo sapiens) [compound 138]
